Laboratory results taken from US20240024520A1, “AUTONOMOUS KNOB DOMAIN PEPTIDES” (UCB BIOPHARMA SRL, priority 2020, published 2024).

B1: hC3Nb1 N-Term (protein)
VHH: TTVHQRTIKSGCPPGYKSGVDCSPGSECKWGCYAVDGRRYGGYGADSGVGSTYTHEFYVDAWGQGSSSSGSSSSGQVQLVETGGGLVQAGGSLRLSCAASGSIFSLNAMGWFRQAPGKEREFVATINRSGGRTYYADSVKGRFTISRDNGKNMVYLQMHSLKPEDTAIYYCAAGTGWSPQTDNEYNYWGQGTQVTVSS
modifications: left off: a dimerising Fc or GST
B2: hC3nb1-K8: hC3nb1 with K8 ultralong CDR-H3 inserted between H74 and H75, displayed on M13 phage (protein)
VHH: QVQLVETGGGLVQAGGSLRLSCAASGSIFSLNAMGWFRQAPGKEREFVATINRSGGRTYYADSVKGRFTISRDNGTVQQKTHQVCPDGFNWGYGCAAGSSRFCTRHDWCCYDERADSHTYGFCTGNRVTNTYEFHADAKNMVYLQMHSLKPEDTAIYYCAAGTGWSPQTDNEYNYWGQGTQVTVSS
modifications: left off: large carriers
B3: hC3nb1-K57: hC3nb1 with K57 ultralong CDR-H3 inserted between H74 and H75, displayed on M13 phage (protein)
VHH: QVQLVETGGGLVQAGGSLRLSCAASGSIFSLNAMGWFRQAPGKEREFVATINRSGGRTYYADSVKGRFTISRDNGTTVHQRTIKSGCPPGYKSGVDCSPGSECKWGCYAVDGRRYGGYGADSGVGSTYTHEFYVDAKNMVYLQMHSLKPEDTAIYYCAAGTGWSPQTDNEYNYWGQGTQVTVSS
modifications: left off: large carriers
B4: hC3Nb1 C-Term (protein)
VHH: QVQLVETGGGLVQAGGSLRLSCAASGSIFSLNAMGWFRQAPGKEREFVATINRSGGRTYYADSVKGRFTISRDNGKNMVYLQMHSLKPEDTAIYYCAAGTGWSPQTDNEYNYWGQGTQVTVSSGGGSGCPPGYKSGVDCSPGSECKWGCYAVDGRRYGGYGADSGV
modifications: left off: a dimerising Fc or GST
B5: 556 (protein)
CDR: TTVHQKTTRVNSCPDGYGYGDGYCYDSGCSASDCYGVDALYSYGHCGCSIYTERPRYEWYVD
modifications: Anti-C5 ultralong CDR-H3
B6: hC3Nb1 Loop 2 (protein)
VHH: QVQLVETGGGLVQAGGSLRLSCAASGSIFSLNAMGWFRQAPSGGGSGCPPGYKSGVDCSPGSECKWGCYAVDGRRYGGYGADSGVSGGGSKEREFVATINRSGGRTYYADSVKGRFTISRDNGKNMVYLQMHSLKPEDTAIYYCAAGTGWSPQTDNEYNYWGQGTQVTVSS
modifications: left off: a dimerising Fc or GST
B7: hC3Nb1Loop2ΔP (protein)
VHH: QVQLVETGGGLVQAGGSLRLSCAASGSIFSLNAMGWFRQASGGGSGCPPGYKSGVDCSPGSECKWGCYAVDGRRYGGYGADSGVSGGGSKEREFVATINRSGGRTYYADSVKGRFTISRDNGKNMVYLQMHSLKPEDTAIYYCAAGTGWSPQTDNEYNYWGQGTQVTVSS
modifications: left off: a dimerising Fc or GST
B8: hC3nb1-K92: hC3nb1 with K92 ultralong CDR-H3 inserted between H74 and H75, displayed on M13 phage (protein)
VHH: QVQLVETGGGLVQAGGSLRLSCAASGSIFSLNAMGWFRQAPGKEREFVATINRSGGRTYYADSVKGRFTISRDNGSIVHQKAHTSVTCPEGWSECGVAIYGYECGRWGCGHFLNSGPNISPYVSTHKYEWYVDAKNMVYLQMHSLKPEDTAIYYCAAGTGWSPQTDNEYNYWGQGTQVTVSS
modifications: left off: large carriers
B9: hC3Nb1 Loop 3 (protein)
VHH: QVQLVETGGGLVQAGGSLRLSCAASGSIFSLNAMGWFRQAPGKEREFVATINRSGGRTYYADSVKGSGGGSGCPPGYKSGVDCSPGSECKWGCYAVDGRRYGGYGADSGVSGGGSRFTISRDNGKNMVYLQMHSLKPEDTAIYYCAAGTGWSPQTDNEYNYWGQGTQVTVSS
modifications: left off: a dimerising Fc or GST
B10: hC3nb1: camelid VHH which binds C3 and C3b, PDB code 6EHG (protein)
VHH: QVQLVETGGGLVQAGGSLRLSCAASGSIFSLNAMGWFRQAPGKEREFVATINRSGGRTYYADSVKGRFTISRDNGKNMVYLQMHSLKPEDTAIYYCAAGTGWSPQTDNEYNYWGQGTQVTVSS
modifications: left off: a dimerising Fc or GST
B11: 564 (protein)
CDR: TTVHQHTRKSGSCPDGWSDCHGSCDGVGCTGSDCVRYNARGYGRHACSGYAYTYSYEFYVN
modifications: Anti-C5 ultralong CDR-H3
B12: 563 (protein)
CDR: TTVHQQTKKQKSCPDGWGHSDDCNCACSANAYACCKRDWLLPGPSCECSTYCVSHTYQWYV
modifications: Anti-C5 ultralong CDR-H3
B13: 542 (protein)
CDR: TTVVQRTHKTTSCPDGYHFIEPCHSGLCWREGACNGDGICANGLGRCRTVSETSTYEFYVN
modifications: Anti-C5 ultralong CDR-H3
B14: hC3nb1-K149: hC3nb1 with K149 ultralong CDR-H3 inserted between H74 and H75, displayed on M13 phage (protein)
VHH: QVQLVETGGGLVQAGGSLRLSCAASGSIFSLNAMGWFRQAPGKEREFVATINRSGGRTYYADSVKGRFTISRDNGTSVLQSTKPQKSCPDGFSYRSWDDFCCPMVGRCLAPRNTYTTEFTIEAKNMVYLQMHSLKPEDTAIYYCAAGTGWSPQTDNEYNYWGQGTQVTVSS
modifications: left off: large carriers
B15: 568 (protein)
CDR: TTVVQRTRKIVTCPDGYSYSEGCGKGDDCGGVHCCANGGVTCWYRHCCSTGTDTYSYEWYVD
modifications: Anti-C5 ultralong CDR-H3

Legend:
[1] = target: T1, C5 (Homo sapiens, UniProt P01031); experiment: Biacore (SPR) single-cycle kinetics on immobilised C5; format: binding; conditions: C5 binding, Biacore, n = 3 independent experiments; for Mean Koff: in 1/s
Protocol: Binding to C5 was measured using surface plasmon resonance (SPR) single-cycle kinetics as described below.
Biacore single-cycle kinetics. Using a Biacore 8K (GE Healthcare), C5 was immobilized on a CM5 chip by amine coupling. Flow cells were activated using EDC/NHS (flow rate, 10 μL/min; contact time, 30 s). C5, at 1 μg/mL in pH 4.5 Sodium-acetate buffer, was immobilized on flow cell two only (flow rate, 10 μL/min; contact time, 420 s). Finally, ethanolamine was applied to both flow cells (flow rate, 10 μL/min; contact time, 420 s). A final immobilization level of approximately 2,000 response units was obtained.
Single-cycle kinetics were measured using titrations in HBS-EP buffer. A high flow rate of 40 μL/min was used, with a contact time of 230 s and a dissociation time of 900 s. Binding to the reference surface was subtracted, and the data were fitted to a single-site binding model using Biacore evaluation software.
We measured individual rate constants (kon and koff) and equilibrium dissociation constants (KD) for knob domain peptides binding to C5 by the Biacore single-cycle kinetics method described above.
We used SPR single cycle kinetics to measure binding to human C5 protein.

[2] = target: T1, C5; conditions: C5 coated directly and biotinylated C5 captured on streptavidin; OD 630 nm
[3] = target: rat C5 protein (Rattus norvegicus, UniProt P08650); experiment: Monoclonal phage screening ELISA, rat C5; format: binding; conditions: anti-C5 ultralong CDR-H3; binder = OD>0.2 AU
Protocol: (§1) For the C5 libraries, a single round of enrichment was performed with either human or rat C5 protein. […] Phage were blocked for 30 minutes. Biotinylated antigen was added to the blocked phage at a concentration of 100 nM and incubated at room temperature with mixing.
(§2) Colonies were picked into a 96-well culture plate containing selective medium 2TY supplemented with 1% Glucose and 100 μg/ml Carbenicillin and was incubated at 37° C. until wells reached mid-log phase of growth prior to addition of M13K07 helper phage. The block was incubated without shaking for 1 hour to achieve infection and phage production using continued culture in selective media supplemented with 50 μg/ml Kanamycin and 100 μg/ml Carbenicillin.
[…] Negative control plate and Anti-myc tag plate were also prepared.
Monoclonal phage rescue supernatants were blocked with an equal volume of a 2% milk (w/v) in PBS, for serum albumin proteins, or 2% BSA and 2% milk (w/v) in PBS solution. The coating solution was removed from coated Nunc plates and each plate was blocked with 1% BSA in PBS (for C5 libraries) or 1% milk powder (for albumin library). Both phage and Nunc plates were blocked for 1 hour at room temperature. […] Absorbance was measured at 630 nm and 490 nm. Binding signals were obtained where Absorbance at 630 nm was >3-times the signal upon irrelevant antigen. […]

[4] = target: T1, C5; experiment: Monoclonal phage screening ELISA, human C5; format: binding; conditions: anti-C5 ultralong CDR-H3; binder = OD>0.2 AU
Protocol: as §1, §2
Binding to antigen was assessed by monoclonal phage ELISA, 96-well flat bottom Nunc MaxiSorp plates (Thermofisher) were coated with a 2.5 μg/ml solution of human, mouse, or rat serum albumin, human C5 or mouse C5 diluted with PBS, and left overnight at 4° C. Negative control plate and Anti-myc tag plate were also prepared.
Monoclonal phage rescue supernatants were blocked with an equal volume of a 2% milk (w/v) in PBS, for serum albumin proteins, or 2% BSA and 2% milk (w/v) in PBS solution. The coating solution was removed from coated Nunc plates and each plate was blocked with 1% BSA in PBS (for C5 libraries) or 1% milk powder (for albumin library). Both phage and Nunc plates were blocked for 1 hour at room temperature. Nunc plates were washed using a 96-well microplate washer (BioTek) with a PBS solution contain 0.1% Tween20 (Sigma Aldrich). 100 of blocked phage solution was added to each well of Nunc MaxiSorp plate and left shaking at room temperature for 1 hour. Plates were washed and dried as previously described. 100 of an Anti-M13-Horse radish peroxidase conjugated antibody (GE Healthcare) diluted (1:5,000) in a 1% BSA or milk solution was added to each well and left shaking at room temperature for 1 hour. Plates were washed again and 50 μL of TMB solution (Merck Millipore) was added to each well. Plates were left shaking for 10 minutes. Absorbance was measured at 630 nm and 490 nm. Binding signals were obtained where Absorbance at 630 nm was >3-times the signal upon irrelevant antigen.
By monoclonal phage ELISA the following ultralong CDR-H3 sequences were identified as binders (OD>0.2 AU): […]

[5] = target: human complement component C3 (Homo sapiens, UniProt P01024); experiment: SPR binding / counter screen on complement component C3; conditions: Biacore, n = 3 independent experiments
From the text: The PGT121-knob domain fusion proteins were counter screened for binding to human complement component C3. C3 is the closest human homologue to C5, sharing a conserved fold and a sequence homology of 26.5%.
We measured binding to C3 and C5 by SPR multi-cycle kinetics and we report full binding kinetics and equilibrium dissociation constants (KD) for binding to both proteins.

[6] = target: C3 protein (Homo sapiens, UniProt P01024); conditions: C3 coated directly and biotinylated C3 captured on streptavidin; OD 630 nm
C3 protein, sequence (P01024 23-1663): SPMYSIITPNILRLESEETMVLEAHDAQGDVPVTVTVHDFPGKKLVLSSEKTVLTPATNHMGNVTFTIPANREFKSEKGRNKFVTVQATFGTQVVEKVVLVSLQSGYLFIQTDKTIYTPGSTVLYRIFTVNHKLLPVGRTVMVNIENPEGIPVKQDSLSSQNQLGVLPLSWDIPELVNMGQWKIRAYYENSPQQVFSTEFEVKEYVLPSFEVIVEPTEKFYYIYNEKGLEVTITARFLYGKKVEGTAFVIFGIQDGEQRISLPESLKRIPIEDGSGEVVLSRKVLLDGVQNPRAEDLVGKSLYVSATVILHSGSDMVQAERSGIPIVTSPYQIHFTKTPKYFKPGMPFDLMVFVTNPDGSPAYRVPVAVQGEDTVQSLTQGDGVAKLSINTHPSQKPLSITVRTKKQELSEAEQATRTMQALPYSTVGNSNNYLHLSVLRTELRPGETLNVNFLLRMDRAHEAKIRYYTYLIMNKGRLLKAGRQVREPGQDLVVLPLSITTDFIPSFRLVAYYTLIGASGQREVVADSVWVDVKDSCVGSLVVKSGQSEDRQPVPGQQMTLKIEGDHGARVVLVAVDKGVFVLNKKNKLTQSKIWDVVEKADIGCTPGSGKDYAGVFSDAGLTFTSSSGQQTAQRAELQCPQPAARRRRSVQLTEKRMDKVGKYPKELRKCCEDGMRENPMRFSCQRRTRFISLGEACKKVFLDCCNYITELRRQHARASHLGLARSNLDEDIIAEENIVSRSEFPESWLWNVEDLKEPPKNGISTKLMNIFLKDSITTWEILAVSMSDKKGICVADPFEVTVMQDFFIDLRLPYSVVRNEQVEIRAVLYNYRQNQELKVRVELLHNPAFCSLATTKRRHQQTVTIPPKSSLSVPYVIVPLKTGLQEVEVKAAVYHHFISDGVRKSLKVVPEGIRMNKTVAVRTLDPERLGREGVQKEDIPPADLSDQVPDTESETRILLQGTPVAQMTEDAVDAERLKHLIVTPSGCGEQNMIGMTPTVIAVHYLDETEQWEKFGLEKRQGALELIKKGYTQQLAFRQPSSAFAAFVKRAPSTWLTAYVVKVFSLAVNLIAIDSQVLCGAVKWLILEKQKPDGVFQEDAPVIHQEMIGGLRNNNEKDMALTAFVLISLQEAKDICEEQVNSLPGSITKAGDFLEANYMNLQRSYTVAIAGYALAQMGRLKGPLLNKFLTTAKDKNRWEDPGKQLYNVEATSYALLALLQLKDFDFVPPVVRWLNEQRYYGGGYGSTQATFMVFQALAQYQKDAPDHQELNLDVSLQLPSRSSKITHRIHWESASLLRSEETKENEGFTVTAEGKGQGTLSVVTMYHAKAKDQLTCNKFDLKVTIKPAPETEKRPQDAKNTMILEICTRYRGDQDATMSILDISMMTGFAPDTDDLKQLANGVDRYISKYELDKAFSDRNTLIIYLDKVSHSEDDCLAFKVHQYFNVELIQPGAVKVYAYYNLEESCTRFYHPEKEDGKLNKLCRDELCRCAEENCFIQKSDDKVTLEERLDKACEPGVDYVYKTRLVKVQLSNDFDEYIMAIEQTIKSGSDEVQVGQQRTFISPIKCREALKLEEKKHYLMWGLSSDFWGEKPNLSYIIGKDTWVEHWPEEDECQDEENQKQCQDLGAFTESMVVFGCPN

T1 sequence (P01031 19-1676): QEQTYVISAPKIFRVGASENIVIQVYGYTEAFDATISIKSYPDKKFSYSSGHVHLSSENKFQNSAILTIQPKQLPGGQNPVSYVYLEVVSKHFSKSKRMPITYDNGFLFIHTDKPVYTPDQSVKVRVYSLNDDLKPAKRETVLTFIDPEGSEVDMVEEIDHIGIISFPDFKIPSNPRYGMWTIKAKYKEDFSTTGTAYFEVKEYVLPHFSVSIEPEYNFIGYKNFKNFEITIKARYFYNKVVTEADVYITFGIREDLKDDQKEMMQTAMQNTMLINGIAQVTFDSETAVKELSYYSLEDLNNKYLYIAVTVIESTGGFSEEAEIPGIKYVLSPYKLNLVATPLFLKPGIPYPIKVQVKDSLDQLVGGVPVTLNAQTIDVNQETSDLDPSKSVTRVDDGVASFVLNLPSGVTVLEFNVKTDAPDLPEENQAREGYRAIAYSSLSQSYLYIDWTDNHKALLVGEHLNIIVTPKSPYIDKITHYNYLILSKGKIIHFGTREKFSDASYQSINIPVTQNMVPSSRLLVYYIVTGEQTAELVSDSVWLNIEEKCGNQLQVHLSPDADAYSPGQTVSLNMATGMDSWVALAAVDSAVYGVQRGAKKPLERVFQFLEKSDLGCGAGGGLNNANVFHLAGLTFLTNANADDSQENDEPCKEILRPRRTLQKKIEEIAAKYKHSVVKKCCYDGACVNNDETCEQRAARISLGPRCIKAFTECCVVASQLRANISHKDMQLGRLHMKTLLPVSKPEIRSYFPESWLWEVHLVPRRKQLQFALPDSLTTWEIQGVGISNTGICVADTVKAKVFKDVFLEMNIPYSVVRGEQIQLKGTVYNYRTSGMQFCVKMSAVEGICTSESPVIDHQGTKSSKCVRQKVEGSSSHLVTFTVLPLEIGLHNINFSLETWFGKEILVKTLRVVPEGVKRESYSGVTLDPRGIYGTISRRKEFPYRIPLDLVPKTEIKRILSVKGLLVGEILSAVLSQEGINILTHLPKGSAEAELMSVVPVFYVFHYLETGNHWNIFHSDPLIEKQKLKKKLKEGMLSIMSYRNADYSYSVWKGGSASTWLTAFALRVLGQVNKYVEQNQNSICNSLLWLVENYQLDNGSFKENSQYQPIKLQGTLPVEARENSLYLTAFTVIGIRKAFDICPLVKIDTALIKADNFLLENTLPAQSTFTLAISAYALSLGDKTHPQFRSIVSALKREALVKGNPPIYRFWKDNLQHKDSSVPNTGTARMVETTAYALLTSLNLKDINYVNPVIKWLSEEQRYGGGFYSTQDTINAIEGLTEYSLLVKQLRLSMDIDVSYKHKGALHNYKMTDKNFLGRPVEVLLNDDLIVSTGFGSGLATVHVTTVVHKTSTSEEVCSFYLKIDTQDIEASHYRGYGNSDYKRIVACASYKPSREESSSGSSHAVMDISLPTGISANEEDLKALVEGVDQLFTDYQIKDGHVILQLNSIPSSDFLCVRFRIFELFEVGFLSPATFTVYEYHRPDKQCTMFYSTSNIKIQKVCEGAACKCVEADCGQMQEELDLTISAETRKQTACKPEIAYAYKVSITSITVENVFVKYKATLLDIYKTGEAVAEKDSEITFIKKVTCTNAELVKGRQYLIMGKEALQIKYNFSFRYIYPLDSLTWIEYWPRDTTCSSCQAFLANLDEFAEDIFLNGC
human complement component C3, sequence (P01024 23-1663): as the sequence (P01024 23-1663) above
rat C5 protein, sequence (P08650 19-674 limits assumed): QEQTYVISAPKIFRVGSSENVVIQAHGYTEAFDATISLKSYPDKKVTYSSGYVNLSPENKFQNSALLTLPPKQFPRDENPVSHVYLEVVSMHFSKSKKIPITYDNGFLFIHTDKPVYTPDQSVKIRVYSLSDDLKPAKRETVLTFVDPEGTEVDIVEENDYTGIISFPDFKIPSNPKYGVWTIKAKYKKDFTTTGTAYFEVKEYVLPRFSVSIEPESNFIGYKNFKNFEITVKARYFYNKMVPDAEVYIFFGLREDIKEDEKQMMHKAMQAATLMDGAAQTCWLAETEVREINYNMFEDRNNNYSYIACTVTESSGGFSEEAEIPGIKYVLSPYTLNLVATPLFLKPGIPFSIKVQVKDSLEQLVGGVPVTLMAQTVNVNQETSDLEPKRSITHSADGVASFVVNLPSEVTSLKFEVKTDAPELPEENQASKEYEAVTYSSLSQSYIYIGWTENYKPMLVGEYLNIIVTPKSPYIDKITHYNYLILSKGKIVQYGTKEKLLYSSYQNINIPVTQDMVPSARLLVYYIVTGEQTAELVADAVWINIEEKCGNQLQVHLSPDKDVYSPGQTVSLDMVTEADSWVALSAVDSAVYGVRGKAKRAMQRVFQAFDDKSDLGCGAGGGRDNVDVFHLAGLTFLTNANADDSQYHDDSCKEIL
rat C5 protein, sequence (P08650 679-1681 limits assumed): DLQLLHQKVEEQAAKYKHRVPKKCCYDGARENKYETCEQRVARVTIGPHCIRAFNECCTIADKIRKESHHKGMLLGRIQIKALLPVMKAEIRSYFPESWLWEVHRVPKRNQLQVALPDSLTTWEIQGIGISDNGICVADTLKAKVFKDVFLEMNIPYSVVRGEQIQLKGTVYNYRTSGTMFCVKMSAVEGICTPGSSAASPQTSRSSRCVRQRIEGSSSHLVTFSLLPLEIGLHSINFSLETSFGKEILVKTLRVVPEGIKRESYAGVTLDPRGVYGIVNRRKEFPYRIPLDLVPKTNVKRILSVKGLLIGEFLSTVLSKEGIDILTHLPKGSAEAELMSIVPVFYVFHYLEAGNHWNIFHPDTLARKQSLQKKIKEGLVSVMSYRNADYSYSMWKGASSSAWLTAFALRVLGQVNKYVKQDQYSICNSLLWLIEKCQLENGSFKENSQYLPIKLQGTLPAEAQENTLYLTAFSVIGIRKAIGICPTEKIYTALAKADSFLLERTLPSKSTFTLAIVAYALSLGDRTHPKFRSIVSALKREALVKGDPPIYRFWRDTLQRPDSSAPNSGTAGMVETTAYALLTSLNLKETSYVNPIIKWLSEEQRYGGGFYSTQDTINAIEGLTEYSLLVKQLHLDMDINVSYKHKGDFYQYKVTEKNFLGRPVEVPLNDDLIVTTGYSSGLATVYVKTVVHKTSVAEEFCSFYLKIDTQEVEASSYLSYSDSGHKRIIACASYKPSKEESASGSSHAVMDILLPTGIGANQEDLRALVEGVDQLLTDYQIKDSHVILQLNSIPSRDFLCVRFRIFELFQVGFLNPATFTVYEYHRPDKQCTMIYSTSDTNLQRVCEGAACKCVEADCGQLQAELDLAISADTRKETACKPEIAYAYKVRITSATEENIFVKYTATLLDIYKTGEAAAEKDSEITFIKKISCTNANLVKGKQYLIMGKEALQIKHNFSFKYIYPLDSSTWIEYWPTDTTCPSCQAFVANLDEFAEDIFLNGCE

| Molecule | Mean Kon [1] | Mean Koff [1] | binding to human C5 (phage ELISA) [2] | Specificity [4] | other results |
| --- | --- | --- | --- | --- | --- |
| B1 | 6.18E+05 | 1.18E−04 | – | – | – |
| B2 | – | – | displayed binding to human C5 | – | – |
| B3 | – | – | displayed binding to human C5 | – | – |
| B4 | 4.52E+05 | 1.19E−04 | – | – | – |
| B5 | – | – | – | Human and Rat | Specificity [3]: Human and Rat |
| B6 | 2.85E+05 | 9.09E−05 | – | – | – |
| B7 | 1.76E+05 | 1.48E−04 | – | – | Kd [5]: 1.51 nM; Mean Kon [5]: 7.32E+05; Mean Koff ([5]; in 1/s): 2.01E−04 |
| B8 | – | – | displayed binding to human C5 | – | – |
| B9 | 2.37E+05 | 1.37E−04 | – | – | – |
| B10 | – | – | No cross-reactivity to C5 protein was observed | – | binding to human C3 (phage ELISA) [6]: binding to human C3 |
| B11 | – | – | – | Human | – |
| B12 | – | – | – | Human | – |
| B13 | – | – | – | Human | – |
| B14 | – | – | did not bind | – | binding to human C3 (phage ELISA) [6]: did not bind |
| B15 | – | – | – | Human | – |
